# B1: Speckle-type POZ protein (Homo sapiens), O43791 (parent)
# chain: MSRVPSPPPPAEMSSGPVAESWCYTQIKVVKFSYMWTINNFSFCREEMGEVIKSSTFSSGANDKLKWCLRVNPKGLDEESKDYLSLYLLLVSCPKSEVRAKFKFSILNAKGEETKAMESQRAYRFVQGKDWGFKKFIRRDFLLDEANGLLPDDKLTLFCEVSVVQDSVNISGQNTMNMVKVPECRLADELGGLWENSRFTDCCLCVAGQEFQAHKAILAARSPVFSAMFEHEMEESKKNRVEINDVEPEVFKEMMCFIYTGKAPNLDKMADDLLAAADKYALERLKVMCEDALCSNLSVENAAEILILADLHSADQLKTQAVDFINYHASDVLETSGWKSMVVSHPHLVAEAYRSLASAQCPFLGPPRKRLKQS
# partner: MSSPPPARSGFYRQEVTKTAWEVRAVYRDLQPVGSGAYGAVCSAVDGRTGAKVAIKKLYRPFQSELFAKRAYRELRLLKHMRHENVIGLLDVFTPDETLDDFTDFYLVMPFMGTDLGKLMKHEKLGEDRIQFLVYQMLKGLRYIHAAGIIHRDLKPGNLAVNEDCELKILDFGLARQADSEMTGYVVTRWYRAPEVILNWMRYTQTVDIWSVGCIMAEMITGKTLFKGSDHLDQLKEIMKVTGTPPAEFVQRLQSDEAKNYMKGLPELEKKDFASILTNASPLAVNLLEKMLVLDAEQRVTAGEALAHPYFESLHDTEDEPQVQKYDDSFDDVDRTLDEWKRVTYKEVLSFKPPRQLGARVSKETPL
# B2: Speckle-type POZ protein (Homo sapiens), O43791 (parent)
# chain: B1 chain
# partner: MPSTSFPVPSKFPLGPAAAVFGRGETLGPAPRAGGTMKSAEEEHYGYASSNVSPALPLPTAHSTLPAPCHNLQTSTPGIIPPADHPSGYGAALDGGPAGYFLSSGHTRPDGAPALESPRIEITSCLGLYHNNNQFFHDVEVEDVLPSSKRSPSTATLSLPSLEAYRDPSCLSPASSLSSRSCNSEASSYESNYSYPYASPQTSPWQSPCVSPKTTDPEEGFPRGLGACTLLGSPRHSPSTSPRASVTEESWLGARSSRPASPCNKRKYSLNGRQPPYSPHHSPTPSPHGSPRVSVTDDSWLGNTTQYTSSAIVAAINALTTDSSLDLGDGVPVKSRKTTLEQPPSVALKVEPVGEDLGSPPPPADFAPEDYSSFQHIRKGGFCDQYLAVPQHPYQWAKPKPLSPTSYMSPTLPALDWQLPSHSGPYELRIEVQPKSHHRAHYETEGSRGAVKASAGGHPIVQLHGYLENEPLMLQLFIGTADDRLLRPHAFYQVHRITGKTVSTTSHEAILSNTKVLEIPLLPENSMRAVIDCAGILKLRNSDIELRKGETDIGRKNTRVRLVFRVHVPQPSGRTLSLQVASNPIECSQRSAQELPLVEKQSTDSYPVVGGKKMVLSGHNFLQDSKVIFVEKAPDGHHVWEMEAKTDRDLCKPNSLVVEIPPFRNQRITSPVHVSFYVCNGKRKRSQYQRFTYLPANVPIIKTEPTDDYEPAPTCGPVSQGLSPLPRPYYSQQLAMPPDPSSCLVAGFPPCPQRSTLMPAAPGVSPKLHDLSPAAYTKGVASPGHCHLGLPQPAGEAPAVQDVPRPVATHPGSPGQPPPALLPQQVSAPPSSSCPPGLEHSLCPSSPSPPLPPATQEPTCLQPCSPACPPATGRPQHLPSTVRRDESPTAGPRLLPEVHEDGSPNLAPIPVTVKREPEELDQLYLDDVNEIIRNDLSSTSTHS
# B3: Speckle-type POZ protein (Homo sapiens), O43791 (parent)
# chain: B1 chain
# partner: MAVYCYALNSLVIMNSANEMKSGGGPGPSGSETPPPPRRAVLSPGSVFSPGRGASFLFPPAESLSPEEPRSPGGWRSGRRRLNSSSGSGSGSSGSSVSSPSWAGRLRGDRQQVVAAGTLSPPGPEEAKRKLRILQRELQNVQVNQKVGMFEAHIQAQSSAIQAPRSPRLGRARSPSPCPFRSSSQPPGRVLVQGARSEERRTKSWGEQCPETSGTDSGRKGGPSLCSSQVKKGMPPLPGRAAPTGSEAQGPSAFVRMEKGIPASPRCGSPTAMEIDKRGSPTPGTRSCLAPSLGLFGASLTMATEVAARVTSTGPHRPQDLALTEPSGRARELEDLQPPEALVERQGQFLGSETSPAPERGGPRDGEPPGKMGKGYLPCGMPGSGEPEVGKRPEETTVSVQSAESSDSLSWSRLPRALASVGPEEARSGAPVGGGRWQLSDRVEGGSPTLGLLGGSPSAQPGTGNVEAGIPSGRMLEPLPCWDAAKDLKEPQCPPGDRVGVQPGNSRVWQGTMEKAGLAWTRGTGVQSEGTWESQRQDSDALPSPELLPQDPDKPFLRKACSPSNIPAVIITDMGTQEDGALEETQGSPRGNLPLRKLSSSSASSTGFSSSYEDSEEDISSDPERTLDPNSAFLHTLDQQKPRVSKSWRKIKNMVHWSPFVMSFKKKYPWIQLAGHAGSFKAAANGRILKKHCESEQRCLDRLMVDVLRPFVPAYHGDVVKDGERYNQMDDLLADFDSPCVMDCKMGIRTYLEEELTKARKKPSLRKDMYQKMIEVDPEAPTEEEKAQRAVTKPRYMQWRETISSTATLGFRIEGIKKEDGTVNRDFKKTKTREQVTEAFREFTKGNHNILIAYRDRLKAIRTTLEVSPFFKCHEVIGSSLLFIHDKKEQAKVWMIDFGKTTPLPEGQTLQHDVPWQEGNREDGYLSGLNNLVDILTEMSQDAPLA
# B4: Speckle-type POZ protein (Homo sapiens), O43791 (parent)
# chain: B1 chain
# partner: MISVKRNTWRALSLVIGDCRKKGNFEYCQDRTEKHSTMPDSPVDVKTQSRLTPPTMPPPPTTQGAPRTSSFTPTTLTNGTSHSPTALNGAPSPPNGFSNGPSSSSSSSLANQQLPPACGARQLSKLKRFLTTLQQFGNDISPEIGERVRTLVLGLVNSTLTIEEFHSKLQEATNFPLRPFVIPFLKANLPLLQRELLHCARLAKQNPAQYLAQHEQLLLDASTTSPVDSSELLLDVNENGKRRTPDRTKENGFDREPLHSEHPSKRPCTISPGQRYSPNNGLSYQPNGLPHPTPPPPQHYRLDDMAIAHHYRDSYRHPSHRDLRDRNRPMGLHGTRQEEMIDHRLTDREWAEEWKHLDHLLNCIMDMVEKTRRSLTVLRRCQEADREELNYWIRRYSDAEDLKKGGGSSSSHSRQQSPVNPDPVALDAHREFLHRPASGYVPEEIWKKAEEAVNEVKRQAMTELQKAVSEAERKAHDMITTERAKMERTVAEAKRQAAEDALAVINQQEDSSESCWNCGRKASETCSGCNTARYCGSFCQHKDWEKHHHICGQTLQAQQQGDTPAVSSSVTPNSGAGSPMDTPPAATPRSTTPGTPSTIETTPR
# Variants of: B1
# Conditions: with mk12_human MAPK12, P53778
row,effect of a mutation on the interaction,Variant
1,with no effect,F133L

# Variants of: B1
# Conditions: with mk12_human MAPK12, P53778
# Remark: another data set of the same source
row,effect of a mutation on the interaction,Variant
1,with no effect,F133V

# Variants of: B2
# Conditions: with nfac1_human NFATC1, O95644
row,effect of a mutation on the interaction,Variant
1,with no effect,F133V

# Variants of: B2
# Conditions: with nfac1_human NFATC1, O95644
# Remark: another data set of the same source
row,effect of a mutation on the interaction,Variant
1,with no effect,F133L

# Variants of: B2
# Conditions: with nfac1_human NFATC1, O95644
# Remark: another data set of the same source
row,effect of a mutation on the interaction,Variant
1,with no effect,F102C

# Variants of: B2
# Conditions: with nfac1_human NFATC1, O95644
# Remark: another data set of the same source
row,effect of a mutation on the interaction,Variant
1,with no effect,Y87C

# Variants of: B3
# Conditions: with ip3kb_human ITPKB
row,effect of a mutation on the interaction,Variant
1,with no effect,F102C

# Variants of: B3
# Conditions: with ip3kb_human ITPKB
# Remark: another data set of the same source
row,effect of a mutation on the interaction,Variant
1,with no effect,F133L

# Variants of: B3
# Conditions: with ip3kb_human ITPKB
# Remark: another data set of the same source
row,effect of a mutation on the interaction,Variant
1,with no effect,F133V

# Variants of: B3
# Conditions: with ip3kb_human ITPKB
# Remark: another data set of the same source
row,effect of a mutation on the interaction,Variant
1,with no effect,Y87C

# Variants of: B4
# Conditions: with mtg8_human RUNX1T1, Q06455
row,effect of a mutation on the interaction,Variant
1,with no effect,F102C

# Variants of: B4
# Conditions: with mtg8_human RUNX1T1, Q06455
# Remark: another data set of the same source
row,effect of a mutation on the interaction,Variant
1,disrupting interaction strength,F102C

# Reference: IntAct's records for PubMed 35512704
